Experimental data published in patent US20090075881A1.
pKd: −log10 of the molar value.

Biological target: fibrinogen complex (FC) component of TISSEEL VH S/D
Assay: SPR; FC coupled to sensor chip, PDGF-AB as analyte in PBS pH 7.4; KD = Koff/Kon by two methods

Substance: recombinant human PDGF-AB (from UniProt P04085 87-211; P01127 82-190) (ligand)
- pKd: 6.47
